Laboratory results reported in paper PMC2171506.

Molecular target: CYK-4/MgcRacGAP (UniProt Q9H0H5)
Experiment: myc IP, anti-CYK-4 Western blot
Conditions: reference: E6 wild type; sites T342

Chain of UniProt Q9H0H5 (Q9H0H5 whole entry, looked up): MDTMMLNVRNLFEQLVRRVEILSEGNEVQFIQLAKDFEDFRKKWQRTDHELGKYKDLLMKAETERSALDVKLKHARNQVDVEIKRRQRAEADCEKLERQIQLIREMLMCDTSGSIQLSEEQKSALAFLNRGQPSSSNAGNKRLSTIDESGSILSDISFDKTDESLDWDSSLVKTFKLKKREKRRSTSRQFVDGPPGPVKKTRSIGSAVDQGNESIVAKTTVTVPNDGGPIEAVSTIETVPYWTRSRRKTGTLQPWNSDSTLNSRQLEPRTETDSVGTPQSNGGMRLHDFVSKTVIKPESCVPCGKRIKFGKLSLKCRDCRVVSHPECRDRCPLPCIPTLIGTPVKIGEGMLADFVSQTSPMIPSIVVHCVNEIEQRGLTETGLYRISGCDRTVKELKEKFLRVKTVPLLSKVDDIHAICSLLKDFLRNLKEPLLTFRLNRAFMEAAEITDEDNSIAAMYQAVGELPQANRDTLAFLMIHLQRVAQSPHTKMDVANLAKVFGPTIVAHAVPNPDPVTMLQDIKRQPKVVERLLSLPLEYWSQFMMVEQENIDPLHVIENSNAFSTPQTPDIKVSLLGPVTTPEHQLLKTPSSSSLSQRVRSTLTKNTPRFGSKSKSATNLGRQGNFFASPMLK

ECT2 E6, 1-352 (from UniProt Q9H8V3-4) E6* (T342A)
binding against the reference: stronger
